How the values were obtained:
[1] = immunohistofluorescence imaging after intranasal injection of FITC-labeled OVA; settings: mice
[2] = mucous adhesive property by SPECT/CT imaging after intranasal injection; settings: 123I-labeled, mice, imaging at 1, 6 and 12 hours
Experimental: The selected eluate fraction was diluted with PBS to a final concentration of 500 μg/ml in view of ^123I-activity to be injected per mouse.
The amount of sample injected for SPECT/CT imaging was such that the sample would have a ^123I-activity of about 200 μCi or more in 40 μl upon nasal administration. 40 μl of a sample was injected into each mouse using a tip for nasal administration, and at 1, 6 and 12 hours after injection, SPECT/CT imaging was started. SPECT/CT imaging was performed for about 1 hour, in which CT imaging was performed for 10 minutes, followed by SPECT imaging for 50 minutes. Because the amount of sample injected intranasally is limited to 40 μl or less, the concentration of the sample is necessarily required to ensure ^123I-activity for imaging. ^123I-labeled nanomicelles were centrifuged, filtered (Ultracel, 10 kDa) and concentrated, thereby ensuring activity required for imaging per 40 μl. The sample was injected into both nasal cavities alternately at intervals of a few minutes depending on the size and condition of the mouse.

B1: OVA alone: OVA (ovalbumin, Sigma-Aldrich), model antigen injected alone (protein, UniProt P01012 2-386, looked up)
Ovalbumin: GSIGAASMEFCFDVFKELKVHHANENIFYCPIAIMSALAMVYLGAKDSTRTQINKVVRFDKLPGFGDSIEAQCGTSVNVHSSLRDILNQITKPNDVYSFSLASRLYAEERYPILPEYLQCVKELYRGGLEPINFQTAADQARELINSWVESQTNGIIRNVLQPSSVDSQTAMVLVNAIVFKGLWEKAFKDEDTQAMPFRVTEQESKPVQMMYQIGLFRVASMASEKMKILELPFASGTMSMLVLLPDEVSGLEQLESIINFEKLTEWTSSNVMEERKIKVYLPRMKMEEKYNLTSVLMAMGITDVFSSSANLSGISSAESLKISQAVHAAHAEINEAGREVVGSAEAGVDAASVSEEFRADHPFLFCIKHIATNAVLFFGRCVSP
time OVA remained in the nasal cavity (immunohistofluorescence) [1]: ~1 h
time OVA remained in the nasal cavity (SPECT/CT) [2]: ≤ 6 h
